Several values for one entry are separate records, joined by “and”; a condition that tells them apart may be missing. Equal entries are not always repeated.

Broadly, the stoichiometry N is a count of units in the complex or per binding partner.

The data set “SEC” concerns the molecule itself. In words: SEC.
The data set “crystal structure” deals with the molecule itself. In words: crystal structure.

B1: untagged C-terminally truncated human 14-3-3σ (14-3-3σΔC: residues 1-231) (domain or fragment)
chain: MERASLIQKAKLAEQAERYEDMAAFMKGAVEKGEELSCEERNLLSVAYKNVVGGQRAAWRVLSSIEQKSNEEGSEEKGPEVREYREKVETELQGVCDTVLGLLDSHLIKEAGDAESRVFYLKMKGDYYRYLAEVATGDDKKRIIDSARSAYQEAMDISKKEMPPTNPIRLGLALNFSVFHYEIANSPEEAISLAKTTFDEAMADLHTLSEDSYKDSTLIMQLLRDNLTLWT
B1: the “stoichiometry N” value in “SEC” is 2.

B2: 14-3-3/HSPB6 protein-phosphopeptide chimera CH1 (14-3-3σΔC Clu3 fused through a GSGS linker to the HSPB6 phosphopeptide) (other)
chain: GPHMERASLIQKAKLAEQAERYEDMAAFMKGAVEKGEELSCEERNLLSVAYKNVVGGQRAAWRVLSSIEQKSNEEGSAAAGPEVREYREKVETELQGVCDTVLGLLDSHLIKEAGDAESRVFYLKMKGDYYRYLAEVATGDDKKRIIDSARSAYQEAMDISKKEMPPTNPIRLGLALNFSVFHYEIANSPEEAISLAKTTFDEAMADLHTLSEDSYKDSTLIMQLLRDNLTLWTGSGSLRRASAPL
modifications: phosphoserine at the Ser that is Ser16 of HSPB6 (RRApSAPL)
For the protein B2, in the data set “SEC”, the “stoichiometry N” value was 2 and 4.

B3: chimera CH2 of 14-3-3σΔC Clu3 with the Gli phosphopeptide (other)
chain: GPHMERASLIQKAKLAEQAERYEDMAAFMKGAVEKGEELSCEERNLLSVAYKNVVGGQRAAWRVLSSIEQKSNEEGSAAAGPEVREYREKVETELQGVCDTVLGLLDSHLIKEAGDAESRVFYLKMKGDYYRYLAEVATGDDKKRIIDSARSAYQEAMDISKKEMPPTNPIRLGLALNFSVFHYEIANSPEEAISLAKTTFDEAMADLHTLSEDSYKDSTLIMQLLRDNLTLWTGSGSLRRASDPAQA
modifications: phosphoserine at the Ser that is Ser640 of Gli (RRApSDPAQA)
B3: the binding result in “crystal structure” is on record as “binds”.

Source of the values: paper doi:10.1101/130245 (bioRxiv, 2017).
